Patent US20090124537A1
Bridges are numbered along the chain shown (N, C = ends). Where no end group is shown, it is not given here.

Assays:
[1] = target: BMP-7 receptor of ROS cell plasma membrane fraction (ROS cell type II BMP receptor) (rat); test: radioligand receptor assay, 125I-BMP-7 on ROS cell plasma membranes
[2] = target: BMP-7 receptor of ROS cell plasma membrane fraction (ROS cell type II BMP receptor) (rat); test: cell-based or functional assay
[3] = target: BMP-7 receptor of ROS cell plasma membrane fraction (ROS cell type II BMP receptor) (rat); test: radioligand receptor assay, displacement of 125I-BMP-7 from ROS cell plasma membranes

What does the source list for CCFINPETVCC (cyclized (disulfide bond between cysteines)) [H-2C]?
peptide concentration that potentiated the binding of 125I-labeled BMP-7 [1]: 8 µM; 50% inhibition of cellular responsiveness to BMP-7 (ROS cell alkaline phosphatase assay) [2]: 5 µM

How did the 50% inhibition of the cell responsive to BMP-7 (ROS cell alkaline phosphatase assay) [2] turn out when CFRDLGWQDWIIAPC (disulfide 1-15 (inferred)) [F1-2] was run?
The 50% inhibition of the cell responsive to BMP-7 (ROS cell alkaline phosphatase assay) was 10 µM.

And the concentration required to inhibit the binding of 125I-labeled BMP-7 [3]?
The concentration required to inhibit the binding of 125I-labeled BMP-7 was 179 µM.

With CYFDDSSNVIC (disulfide 1-11 (inferred)) [F2-2] as the binder, how does the potentiation of BMP-7 induced cell responsiveness at 0.6-60 µM peptide (ROS cell alkaline phosphatase assay) [2] read?
Its potentiation of BMP-7 induced cell responsiveness at 0.6-60 µM peptide (ROS cell alkaline phosphatase assay) is 20%.

What about the IC50 [3] of the same binder?
The IC50 was 1000 nM.
